Molecular target: T1, CyaA-hemolysin (CyaA-Hly), 126-kDa truncated fragment of Bordetella pertussis adenylate cyclase-hemolysin … (Bordetella pertussis, strain not named; …, UniProt P0DKX7)
T1 construct: also called CyaA-Hly toxin; His-tagged CyaA-Hly domain
Test: ELISA

T1 sequence (P0DKX7 whole entry, looked up, the tested form may be a part): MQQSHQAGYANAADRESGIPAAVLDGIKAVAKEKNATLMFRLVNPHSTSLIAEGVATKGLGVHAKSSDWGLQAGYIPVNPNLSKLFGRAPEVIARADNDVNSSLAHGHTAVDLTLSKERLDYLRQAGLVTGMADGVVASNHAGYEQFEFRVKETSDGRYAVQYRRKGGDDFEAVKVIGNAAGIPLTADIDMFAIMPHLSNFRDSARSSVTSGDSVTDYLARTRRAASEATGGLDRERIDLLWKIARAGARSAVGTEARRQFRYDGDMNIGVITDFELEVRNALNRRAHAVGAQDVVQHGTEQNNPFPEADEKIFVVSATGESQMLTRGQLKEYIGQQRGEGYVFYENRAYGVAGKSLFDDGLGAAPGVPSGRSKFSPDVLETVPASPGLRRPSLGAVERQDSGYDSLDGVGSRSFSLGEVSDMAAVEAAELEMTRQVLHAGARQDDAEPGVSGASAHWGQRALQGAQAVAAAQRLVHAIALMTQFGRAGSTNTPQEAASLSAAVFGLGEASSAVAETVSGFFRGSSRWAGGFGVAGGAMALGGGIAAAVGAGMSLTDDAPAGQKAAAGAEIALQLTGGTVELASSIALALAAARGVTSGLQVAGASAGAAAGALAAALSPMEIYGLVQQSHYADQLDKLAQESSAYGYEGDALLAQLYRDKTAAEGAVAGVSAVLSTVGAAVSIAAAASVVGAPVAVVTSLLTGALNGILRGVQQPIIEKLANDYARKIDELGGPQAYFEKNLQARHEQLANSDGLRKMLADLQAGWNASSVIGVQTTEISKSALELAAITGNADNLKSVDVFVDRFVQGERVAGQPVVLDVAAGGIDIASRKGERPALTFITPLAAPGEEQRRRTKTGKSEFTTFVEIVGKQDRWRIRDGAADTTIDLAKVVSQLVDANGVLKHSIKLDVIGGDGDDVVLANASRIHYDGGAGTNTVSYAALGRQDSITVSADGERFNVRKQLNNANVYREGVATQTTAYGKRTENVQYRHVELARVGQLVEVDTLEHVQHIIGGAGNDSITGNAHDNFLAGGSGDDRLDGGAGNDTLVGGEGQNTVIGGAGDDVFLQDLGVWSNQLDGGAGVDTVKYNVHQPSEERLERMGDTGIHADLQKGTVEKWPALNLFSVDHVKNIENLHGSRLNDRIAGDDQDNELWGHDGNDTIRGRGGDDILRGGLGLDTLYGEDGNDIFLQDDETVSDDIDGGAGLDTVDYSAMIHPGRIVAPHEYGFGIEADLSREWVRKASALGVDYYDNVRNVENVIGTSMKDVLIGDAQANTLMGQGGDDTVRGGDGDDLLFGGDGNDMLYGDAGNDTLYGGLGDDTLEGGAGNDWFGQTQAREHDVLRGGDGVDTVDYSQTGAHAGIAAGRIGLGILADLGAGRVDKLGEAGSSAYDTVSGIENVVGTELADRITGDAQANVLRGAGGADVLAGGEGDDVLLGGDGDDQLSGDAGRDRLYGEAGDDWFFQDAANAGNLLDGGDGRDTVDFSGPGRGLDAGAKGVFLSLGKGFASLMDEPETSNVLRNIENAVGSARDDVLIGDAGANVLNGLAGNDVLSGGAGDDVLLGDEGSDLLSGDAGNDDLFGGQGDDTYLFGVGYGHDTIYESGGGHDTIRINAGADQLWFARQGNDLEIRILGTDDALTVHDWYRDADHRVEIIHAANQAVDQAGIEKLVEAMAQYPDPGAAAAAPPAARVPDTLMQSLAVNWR

B1: VHH37, His-tagged, purified and refolded (VHH)
VHH: VQLVESGGGSVQAGGSLRLSCTASGFTFDDFDMGWYHQAPGNECELVSTISNAGHTYYADSVKGRFAISRDNAKNMVYLQMNNLKPEDTAMYYCAAVGALLGFPLVLARPRGGYNYWGQGTMVTVSS
notes: not shown: His6, C-terminal, kept
- binding result (both partners purified): binds

B2: VHH37, E-tagged (clone no. 37, from the humanized-camel VH/VHH phage-display library) (VHH)
VHH: B1 VHH
notes: source: E. coli HB2151, phagemid pCANTAB5E, IPTG-induced, in lysate; not shown: E tag, C-terminal, kept
- binding result (one partner purified): binds

B3: VHH2, E-tagged (clone no. 2, from the humanized-camel VH/VHH phage-display library) (VHH)
VHH: VQLVESGGGSVQAGGSLRLSCTVSGYTDNRYCMGWFRQAPGKEREGVAGINDFGGTTYYVDSVKGRFTISQNNAKNTVYLQMNSLKPEDTAIYYCAIAPRIWGSICSPGTQYNYWGQGTMVTVSS
notes: as for B2
- binding result (one partner purified): binds

B4: VHH2, His-tagged, purified and refolded (VHH)
VHH: B3 VHH
notes: as for B1
- binding result (both partners purified): binds
